We go through 15 molecules from patent US20190359719A1 (SORRENTO THERAPEUTICS, published 2019).

In test [1] the target is T1, c-Met (HGF receptor) expressed on cells (human, UniProt P08581 25-1390).
T1 construct: whole, on cells; Endogenous c-Met on tumour cell lines and on human umbilical vein endothelial cells
The experiment in a line: flow cytometry, antibody titration on SK-O-V3 ovarian cancer cells, PE anti-human IgG. As for the experimental part:
(§1) This example illustrates in vitro data for anti-c-Met antibody cellular binding EC₅₀ measurements. […] In this example, DU-145 prostate cancer cells or SK-O-V3 ovarian cancer cells were aliquoted into the wells of a 96-well, v-bottom plate in FACS Buffer (PBS+2% FBS). A 16-point, 2 fold serial dilution curve of antibodies made in FACS Buffer was used to stain the cells. After 1 hr incubation, cells were washed 2× with FACS Buffer and resuspended in PE-conjugated, goat anti-human IgG (γ-chain specific) secondary antibody (Southern Biotech Cat #2040-09). Cells were further incubated for 0.5 hr and then washed 1× with FACS Buffer. Cells were resuspended in FACS Buffer and the median fluorescence intensity in the FL2-A channel was determined using the Intellicyt® HTFC flow cytometer. Data was collected and analyzed on the Intellicyt® HTFC flow cytometer using the ForeCyt® software. ND=Not Determined
In general terms: A flow cytometer gives signals particle by particle.

The target in test [2] is T1, c-Met (HGF receptor) expressed on cells. Nature of the test: flow cytometry, antibody titration on DU-145 prostate cancer cells, PE anti-human IgG. As for the experimental part: as §1
For test [3] the target is unchanged. The test is described as above. Here is the method:
(§2) This example illustrates in vitro data for anti-c-Met antibody cellular binding EC₅₀ measurements. […] In this example, DU-145 prostate cancer cells, SK-O-V3 ovarian cancer cells, or human umbilical vein endothelial cells (HUVEC) were aliquoted into the wells of a 96-well, v-bottom plate in FACS Buffer (PBS+2% FBS). A 16-point, 2 fold serial dilution curve of antibodies made in FACS Buffer was used to stain the cells. After 1 hr incubation, cells were washed 2× with FACS Buffer and resuspended in PE-conjugated, goat anti-human IgG (γ-chain specific) secondary antibody (Southern Biotech Cat #2040-09). Cells were further incubated for 0.5 hr and then washed 1× with FACS Buffer. Cells were resuspended in FACS Buffer and the median fluorescence intensity in the FL2-A channel was determined using the Intellicyt® HTFC flow cytometer. Data was collected and analyzed on the Intellicyt® HTFC flow cytometer using the ForeCyt® software. ND=Not Determined.
The source holds these as a separate data set.

The target is the same in test [4]. Nature of the test: flow cytometry, antibody titration on SK-O-V3 ovarian cancer cells, PE anti-human IgG. Here is the method: as §2
This is another data set of the same source.

Test [5] shares this target. The experiment in a line: flow cytometry, antibody titration on HUVEC cells, PE anti-human IgG. As for the experimental part:
as §2

T1 sequence (P08581 25-1390): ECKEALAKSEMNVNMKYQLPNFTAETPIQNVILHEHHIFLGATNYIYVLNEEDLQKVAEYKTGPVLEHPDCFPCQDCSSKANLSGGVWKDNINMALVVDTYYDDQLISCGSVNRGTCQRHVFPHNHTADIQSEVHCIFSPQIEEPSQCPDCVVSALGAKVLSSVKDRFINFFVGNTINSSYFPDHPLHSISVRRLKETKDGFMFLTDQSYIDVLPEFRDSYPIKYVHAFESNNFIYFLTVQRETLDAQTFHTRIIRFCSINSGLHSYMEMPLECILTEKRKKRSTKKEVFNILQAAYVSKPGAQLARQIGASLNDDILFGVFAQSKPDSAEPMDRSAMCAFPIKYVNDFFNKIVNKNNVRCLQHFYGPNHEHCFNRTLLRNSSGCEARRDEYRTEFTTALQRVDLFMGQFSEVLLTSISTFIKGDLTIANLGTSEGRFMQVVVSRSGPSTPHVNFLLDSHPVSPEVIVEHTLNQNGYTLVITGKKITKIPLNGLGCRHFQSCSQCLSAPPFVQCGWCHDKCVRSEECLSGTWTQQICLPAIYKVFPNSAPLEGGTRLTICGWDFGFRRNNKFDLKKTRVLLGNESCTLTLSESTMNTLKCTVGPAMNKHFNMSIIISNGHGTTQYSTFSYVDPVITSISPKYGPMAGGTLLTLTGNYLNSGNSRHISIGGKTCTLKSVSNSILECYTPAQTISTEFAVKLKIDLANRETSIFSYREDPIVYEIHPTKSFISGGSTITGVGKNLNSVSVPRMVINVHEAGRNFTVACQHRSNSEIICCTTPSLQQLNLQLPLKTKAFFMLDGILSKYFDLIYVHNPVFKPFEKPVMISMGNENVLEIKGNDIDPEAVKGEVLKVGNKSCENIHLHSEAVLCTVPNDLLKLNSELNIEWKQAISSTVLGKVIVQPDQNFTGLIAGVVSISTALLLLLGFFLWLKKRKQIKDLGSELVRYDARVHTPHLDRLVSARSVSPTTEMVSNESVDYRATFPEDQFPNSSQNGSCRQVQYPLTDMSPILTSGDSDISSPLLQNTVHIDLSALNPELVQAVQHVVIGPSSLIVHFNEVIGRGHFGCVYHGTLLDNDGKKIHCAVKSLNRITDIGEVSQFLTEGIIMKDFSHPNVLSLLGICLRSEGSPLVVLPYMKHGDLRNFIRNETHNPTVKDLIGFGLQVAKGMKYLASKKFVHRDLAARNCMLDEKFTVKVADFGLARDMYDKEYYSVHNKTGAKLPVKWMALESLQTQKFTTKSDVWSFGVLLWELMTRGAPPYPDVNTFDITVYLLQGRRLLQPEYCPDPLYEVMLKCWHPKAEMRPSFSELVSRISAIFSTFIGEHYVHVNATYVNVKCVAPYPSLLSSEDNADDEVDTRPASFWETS

B1: A1-2 anti-c-Met antibody (antibody, V domains shown)
VH: QVQLQESGPGLVKPSQTLSLTCTVSGGSISSGGYYWSWIRQHPGKGLEWIGESTHSGSTNYNPSLKSRVTISVDTSKNQFSLKLSSVTAADTAVYYCARGRDGYDFDAWGQGTLVTVSS
VL: LPVLTQPASVSGSPGQSITISCTGTSFDVGGYNYVSWYQQHPGKAPKLMIYDVSDRPSGVSTRFSGSKSGNTASLTISGLQAEDEADYYCSSFRSSSALVVFGGGTKLTVL
notes: Detected with anti-human IgG (gamma-chain specific)
For B1, it took 0.223 nM to reach a half-maximal effect in test [1] (EC50).

B2: A1-24 anti-c-Met antibody (antibody, V domains shown)
VH: QVQLQESGPGLVKPSQTLSLTCTVSGGSISSGGYYWSWIRQHPGKGLEWIGESTHSGSTNYNPSLESRVTISVDTSKNQFSLKLSSVTAADTAVYYCARGRDSYDFDAWGQGTLVTVSS
VL: LPVLTQPASVSGSPGQSITISCTGTSFDVGGYNYVSWYQQHPGKAPKLMIYDVSDRPSGVSTRFSGSKSGNTASLTISGLQAEDEADYYCSSFRSSAALVVFGGGTKLTVL
notes: as for B1
As to B2, the EC50 (in general, the midpoint of the concentration-response curve) in test [2] was found to be 0.003 nM; in test [1], 0.135 nM.

B3: A1-9 anti-c-Met antibody (antibody, V domains shown)
VH: QVQLQESGPGLVKPSQTLSLTCTVSGGSISSGGYYWSWIRQHPGKGLEWIGEISHSGSTNYNPSLKSRVTISVDTSKNQFSLKLSSVTAADTAVYYCARGRDGYYLDQWGQGTLVTVSS
VL: LPVLTQPASVSGSPGQSITISCTGTSSDVGGYNYVSWYQQHPGKAPKLMIYNVSDRPSGVSTRFSGSKSGNTASLTISGLQAEDEADYYCSSFRSSSALVVFGGGTKLTVL
notes: as for B1
B3: the EC50 in test [2] came to 0.058 nM; in test [1] it was 0.076 nM.

B4: A1-6 anti-c-Met antibody (antibody, V domains shown)
VH: QVQLQESGPGLVKPSQTLSLTCTVSGGSISSGGYYWSWIRQHPGKGLEWIGEITHSGSTNYNPSLKSRVTISVDTSKNQFSLKLSSVTAADTAVYYCARGRDGYDIDAWGQGTLVTVSS
VL: LPVLTQPASVSGSPGQSITISCTGTSWDVGGYPYVSWYQQHPGKAPKLMIYDVSDRPSGVSTRFSGSKSGNTASLTISGLQAEDEADYYCSSYRSVSALVVFGGGTKLTVL
notes: as for B1
In the case of B4, it took 0.053 nM to reach a half-maximal effect in test [1] (EC50).

B5: A1-32 anti-c-Met antibody (antibody, V domains shown)
VH: QVQLQESGPGLVKPSQTLSLTCTVSGGSISSGGYYWSWIRQHPGKGLEWIGESTHSGSTNYNPSLDSRVTISVDTSKNQFSLKLSSVTAADTAVYYCARGRDGYYLDQWGQGTLVTVSS
VL: LPVLTQPASVSGSPGQSITISCTGTSFDVGGYPYVSWYQQHPGKAPKLMIYDVSDRPSGVSTRFSGSKSGNTASLTISGLQAEDEADYYCSSFRSSAALVVFGGGTKLTVL
notes: as for B1
On to B5, for which the EC50 in test [2] came to 0.064 nM; in test [1] it was 0.109 nM.

B6: A1-4 anti-c-Met antibody (antibody, V domains shown)
VH: QVQLQESGPGLVKPSQTLSLTCTVSGGSISSGGYYWSWIRQHPGKGLEWIGESSHSGSTNYNPSLKSRVTISVDTSKNQFSLKLSSVTAADTAVYYCARGRDGYYFDAWGQGTLVTVSS
VL: LPVLTQPASVSGSPGQSITISCTGTSSDVGGYPYVSWYQQHPGKAPKLMIYVVSDRPSGVSTRFSGSKSGNTASLTISGLQAEDEADYYCSSYRSSSALVVFGGGTQLTVL
notes: as for B1
Consider B6, for which the EC50 in test [2] was determined as 0.017 nM; in test [1] it was 0.054 nM.

B7: El-A10 (E1 derived anti-c-Met antibody) (antibody, V domains shown)
VH: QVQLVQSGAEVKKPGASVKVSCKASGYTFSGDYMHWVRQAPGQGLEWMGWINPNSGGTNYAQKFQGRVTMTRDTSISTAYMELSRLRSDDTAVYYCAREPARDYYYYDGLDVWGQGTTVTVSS
VL: QSVVTQPPSVSGAPGQRVTISCLGSASNIGAGHDVHWYQQLPGTAPKLLIYGNSNRPSGVPDRFSGSKSGTSASLAITGLQAEDEADYYCQSYSSSLSAYVFGTGTKVTVL
notes: The two labels are matched by their suffix only; Detected with anti-human IgG (gamma-chain specific); also called E1-A10; GCE-A10
On to B7, for which the results for the EC50 in test [3], in test [4] and in test [5] were 0.2 nM, 0.153 nM and 0.148 nM, respectively.

B8: El-A18 (E1 derived anti-c-Met antibody) (antibody, V domains shown)
VH: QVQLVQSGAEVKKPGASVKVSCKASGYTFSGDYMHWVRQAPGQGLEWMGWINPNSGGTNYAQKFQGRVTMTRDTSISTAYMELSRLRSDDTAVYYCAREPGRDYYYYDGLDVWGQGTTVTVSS
VL: QSVVTQPPSVSGAPGQRVTISCIGSASNIGAGHDVHWYQQLPGTAPKLLIYGNSNRPSGVPDRFSGSKSGTSASLAITGLQAEDEADYYCQSYSSSLSAYVFGTGTKVTVL
notes: Label 'El-A18' matched to 'GCE-A18' by suffix only; Detected with anti-human IgG; also called E1-A18; GCE-A18
With B8, the EC50 worked out at 1.15 nM in test [4] and 0.606 nM in test [5].

B9: El-A11 (E1 derived anti-c-Met antibody) (antibody, V domains shown)
VH: QVQLVQSGAEVKKPGASVKVSCKASGFTFSGDYIHWVRQAPGQGLEWMGWINPNSGGTNYAQKFQGRVTMTRDTSISTAYMELSRLRSDDTAVYYCAREPARDYYYYDGLDVWGQGTTVTVSS
VL: QSVVTQPPSVSGAPGQRVTISCLGSSSNIGAGHDVHWYQQLPGTAPKLLIYGNSNRISGVPDRFSGSKSGTSASLAITGLQAEDEADYYCQSYSSSLSAYLFGTGTKVTVL
notes: Label 'El-A11' matched to 'GCE-A11' by suffix only; Detected with anti-human IgG; also called E1-A11; GCE-A11
With B9, the EC50 in test [3] turned out to be 0.26 nM; in test [4], 0.2 nM.

B10: El-B13 (E1 derived anti-c-Met antibody) (antibody, V domains shown)
VH: QVQLVQSGAEVKKPGASVKVSCKASGSTFSGDYIHWVRQAPGQGLEWMGWINPNSGGTNYAQKFQGRVTMTRDTSISTAYMELSRLRSDDTAVYYCAREPARDYYYYDGLDVWGQGTTVTVSS
VL: QSVVTQPPSVSGAPGQRVTISCLGSASNIGAGHDVHWYQQLPGTAPKLLIYGNSNRPSGVPDRFSGSKSGTSASLAITGLQAEDEADYYCQSYSSSLSAVLFGTGTKVTVL
notes: Label 'El-B13' matched to 'GCE-B13' by suffix only; Detected with anti-human IgG; also called E1-B13; GCE-B13
On to B10, for which the figures for the EC50 in test [3], in test [4] and in test [5] were 0.251 nM, 0.191 nM and 0.19 nM, respectively.

B11: El-BR1 (E1 derived anti-c-Met antibody) (antibody, V domains shown)
VH: QVQLVQSGAEVKKPGASVKVSCKASGSTFSGDYLHWVRQAPGQGLEWMGWINPNSGGTNYAQKFQGRVTMTRDTSISTAYMELSRLRSDDTAVYYCAREPARDYYYYDGLDVWGQGTTVTVSS
VL: QSVVTQPPSVSGAPGQRVTISCLGSASNIGAGYDVHWYQQLPGTAPKLLIYGNSNRPSGVPDRFSGSKSGTSASLAITGLQAEDEADYYCQSYSSSLSAVLFGTGTKVTVL
notes: Label 'El-BR1' matched to 'GCE-BR1' by suffix only; Detected with anti-human IgG; also called E1-BR1; GCE-BR1
For the molecule B11, the concentration giving a half-maximal response (EC50) in test [3] was 3.36 nM; in test [4] it was 0.467 nM; in test [5], 0.376 nM.

B12: El-B19 (E1 derived anti-c-Met antibody) (antibody, V domains shown)
VH: QVQLVQSGAEVKKPGASVKVSCKASGFTFSGDYIHWVRQAPGQGLEWMGWINPNSGGTNYAQKFQGRVTMTRDTSISTAYMELSRLRSDDTAVYYCAREPGRDYYYYDGLDVWGQGTTVTVSS
VL: QSVVTQPPSVSGAPGQRVTISCLGSASNIGAGHDVHWYQQLPGTAPKLLIYGNSNRPSGVPDRFSGSKSGTSASLAITGLQAEDEADYYCQSYSSSLSAVLFGTGTKVTVL
notes: Label 'El-B19' matched to 'GCE-B19' by suffix only; Detected with anti-human IgG; also called E1-B19; GCE-B19
Turning to B12, the EC50 in test [3] was found to be 3.35 nM; in test [4] it was 0.852 nM.

B13: El-B11 (E1 derived anti-c-Met antibody) (antibody, V domains shown)
VH: QVQLVQSGAEVKKPGASVKVSCKASGYTFSGDYIHWVRQAPGQGLEWMGWINPNSGGTNYAQKFQGRVTMTRDTSISTAYMELSRLRSDDTAVYYCAREPARDYYYYDGLDVWGQGTTVTVSS
VL: QSVVTQPPSVSGAPGQRVTISCIGSSSNIGAGYDVHWYQQLPGTAPKLLIYGNSNRISGVPDRFSGSKSGTSASLAITGLQAEDEADYYCQSYSSSLSAVLFGTGTKVTVL
notes: Label 'El-B11' matched to 'GCE-B11' by suffix only; Detected with anti-human IgG; also called E1-B11; GCE-B11
B13: the EC50 in test [3] was 0.34 nM; in test [4], 0.41 nM.

B14: El-A14 (E1 derived anti-c-Met antibody) (antibody, V domains shown)
VH: QVQLVQSGAEVKKPGASVKVSCKASGYTFSGDYIHWVRQAPGQGLEWMGWINPNSGGTNYAQKFQGRVTMTRDTSISTAYMELSRLRSDDTAVYYCAREPARDYYYYDGLDVWGQGTTVTVSS
VL: QSVVTQPPSVSGAPGQRVTISCIGSSSNIGAGHDVHWYQQLPGTAPKLLIYGNSNRPSGVPDRFSGSKSGTSASLAITGLQAEDEADYYCQSYSSSLSAYVFGTGTKVTVL
notes: Label 'El-A14' matched to 'GCE-A14' by suffix only; Detected with anti-human IgG; also called E1-A14; GCE-A14
B14: the results for the EC50 in test [3], in test [4] and in test [5] were 0.212 nM, 0.12 nM and 0.132 nM, respectively.

B15: El-A13 (E1 derived anti-c-Met antibody) (antibody, V domains shown)
VH: QVQLVQSGAEVKKPGASVKVSCKASGYTFSGDYLHWVRQAPGQGLEWMGWINPNSGGTNYAQKFQGRVTMTRDTSISTAYMELSRLRSDDTAVYYCAREPARDYYYYDGLDVWGQGTTVTVSS
VL: QSVVTQPPSVSGAPGQRVTISCLGSASNIGAGHDVHWYQQLPGTAPKLLIYGNSNRPSGVPDRFSGSKSGTSASLAITGLQAEDEADYYCQSYSSSLSAYVFGTGTKVTVL
notes: Label 'El-A13' matched to 'GCE-A13' by suffix only; Detected with anti-human IgG; also called E1-A13; GCE-A13
For B15, the EC50 in test [3] turned out to be 0.362 nM; in test [4], 0.159 nM.
